Test results from patent US20120189639A1 (Merck Sharp & Dohme, published 2012).
Changes are numbered by the printed parent chain. One block for each binder: values may come before it.

How the values were obtained:
hGITR-hIgG [1] = target: T1, hGITR-hIgG (human, UniProt Q9Y5U5 26-161, limits assumed); assay: BIAcore SPR; hGITR-hIgG capture antigen, mAb analyte; apparent Kd
T1 construct: not shown: human IgG part of the fusion
T1 sequence: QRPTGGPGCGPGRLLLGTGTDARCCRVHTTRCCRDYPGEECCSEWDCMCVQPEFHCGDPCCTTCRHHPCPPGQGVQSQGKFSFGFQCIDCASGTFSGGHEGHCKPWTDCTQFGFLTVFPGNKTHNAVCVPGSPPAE
Procedure: (§1) BIAcore determinations are performed essentially as described at Example 4 of co-pending, commonly assigned U.S. patent application Ser. No. 11/511,635 (filed 29 Aug. 2006). Briefly, binding partners are immobilized on a BIAcore CM5 sensor chip using standard amine-coupling procedure. Kinetic constants for the various interactions are determined using BIAevaluation software 3.1. The Kd is determined using the calculated dissociation and association rate constants.

hGITR-hIgG [2] = target: T1, hGITR-hIgG; assay: BIAcore SPR; hGITR-hIgG capture antigen, mAb analyte
Procedure: as §1

[3] = target: T2, human GITR on naïve CD4+ T cells (human, UniProt Q9Y5U5 26-241); assay: cell-based or functional assay
T2 sequence: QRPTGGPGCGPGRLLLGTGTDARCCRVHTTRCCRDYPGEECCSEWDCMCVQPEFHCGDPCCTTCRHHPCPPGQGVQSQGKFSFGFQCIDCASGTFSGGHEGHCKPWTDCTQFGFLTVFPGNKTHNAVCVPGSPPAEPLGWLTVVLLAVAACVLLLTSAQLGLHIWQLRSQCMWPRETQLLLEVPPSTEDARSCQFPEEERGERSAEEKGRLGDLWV

[4] = target: T2, human GITR on naïve CD4+ T cells; assay: cell-based or functional assay; remark: listed apart in the source

Kd (hGITR-hIgG [1]): 8.05 nM
koff (hGITR-hIgG [2]): 0.000766 s⁻¹
kon (hGITR-hIgG [2]): 95000 M⁻¹ s⁻¹
proliferation of naïve CD4+ T cells, mean, at 0.04 ng/mL Ab [3]: 33300
proliferation of naïve CD4+ T cells, mean, at 0.15 ng/mL Ab [3]: 30800
proliferation of naïve CD4+ T cells, mean, at 0.61 ng/mL Ab [3]: 33800
proliferation of naïve CD4+ T cells, mean, at 2.4 ng/mL Ab [3]: 43100
proliferation of naïve CD4+ T cells, mean, at 9.8 ng/mL Ab [3]: 79300
proliferation of naïve CD4+ T cells, mean, at 39.1 ng/mL Ab [3]: 124000
proliferation of naïve CD4+ T cells, mean, at 156 ng/mL Ab [3]: 109000
proliferation of naïve CD4+ T cells, mean, at 625 ng/mL Ab [3]: 111000
proliferation of naïve CD4+ T cells, mean, at 2500 ng/mL Ab [3]: 109000
proliferation of naïve CD4+ T cells, mean, at 10000 ng/mL Ab [3]: 96200
B1: 3D6 (antibody, V domains shown)
VH: EVQLVESGGGLVQPGRSLKLSCAASGFTFSDYYMAWVRQAPTKGLEWVAYIHANGGSTYYRDSVRGRFSISRDNGKSTLYLQMDSLRSEDTATYYCTTGSFMYAADYYIMDAWGQGASVTVSS
VL: DVVMTQTPVSLSVSLGNQASISCRSSQSLLHSDGNTFLSWYFQKPGQSPQLLIYLASNRFSGVSNRFSGSGSGTDFTLKISRVEPEDLGVYYCFQHTHLPLTFGSGTKLEIKR
notes: Parental rodent anti-human GITR monoclonal antibody from a hybridoma; kappa VL; also called JL5.3D6; hybridoma PTA-9889

Kd (hGITR-hIgG [1]): 0.012 nM
koff (hGITR-hIgG [2]): 2.7e-05 s⁻¹
kon (hGITR-hIgG [2]): 2.33e+06 M⁻¹ s⁻¹
proliferation of naïve CD4+ T cells, mean, at 0.4 ng/mL Ab [4]: 60100
proliferation of naïve CD4+ T cells, mean, at 0.9 ng/mL Ab [4]: 60900
proliferation of naïve CD4+ T cells, mean, at 2.2 ng/mL Ab [4]: 69200
proliferation of naïve CD4+ T cells, mean, at 5.2 ng/mL Ab [4]: 77700
proliferation of naïve CD4+ T cells, mean, at 12.6 ng/mL Ab [4]: 85700
proliferation of naïve CD4+ T cells, mean, at 30.1 ng/mL Ab [4]: 83400
proliferation of naïve CD4+ T cells, mean, at 72.3 ng/mL Ab [4]: 85300
proliferation of naïve CD4+ T cells, mean, at 173.6 ng/mL Ab [4]: 84600
proliferation of naïve CD4+ T cells, mean, at 416.7 ng/mL Ab [4]: 79700
proliferation of naïve CD4+ T cells, mean, at 1000.0 ng/mL Ab [4]: 83600
B2: 9E5 (antibody, V domains shown)
VH: QVTLKESGPGILQPSQTLSLTCTFSGFSLSTYGVGVGWIRQPSGKGLEWLANIWWDDDNYYNPSLIHRLTVSKDTSNNQAFLKITNVDTAETATYYCAQIKEPRDWFFEFWGPGTMVSVSS
VL: DIQMTQTPSSMPASLGERVTIFCRASQGVNNFLTWYQQKPDGTIKPLIFYTSNLQSGVPSRFSGSGSGTDYSLSISSLEPEDFAMYYCQQYHGFPNTFGAGTKLELKR
notes: Parental rodent anti-human GITR monoclonal antibody from a hybridoma; kappa VL; also called 9E5.C1

Kd (hGITR-hIgG [1]): ≤ 0.005 nM
koff (hGITR-hIgG [2]): 7e-06 s⁻¹
kon (hGITR-hIgG [2]): 1.57e+06 M⁻¹ s⁻¹
proliferation of naïve CD4+ T cells, mean, at 0.4 ng/mL Ab [4]: 58500
proliferation of naïve CD4+ T cells, mean, at 0.9 ng/mL Ab [4]: 57000
proliferation of naïve CD4+ T cells, mean, at 2.2 ng/mL Ab [4]: 67600
proliferation of naïve CD4+ T cells, mean, at 5.2 ng/mL Ab [4]: 79600
proliferation of naïve CD4+ T cells, mean, at 12.6 ng/mL Ab [4]: 90500
proliferation of naïve CD4+ T cells, mean, at 30.1 ng/mL Ab [4]: 94700
proliferation of naïve CD4+ T cells, mean, at 72.3 ng/mL Ab [4]: 98600
proliferation of naïve CD4+ T cells, mean, at 173.6 ng/mL Ab [4]: 96900
proliferation of naïve CD4+ T cells, mean, at 416.7 ng/mL Ab [4]: 86900
proliferation of naïve CD4+ T cells, mean, at 1000.0 ng/mL Ab [4]: 87500
B3: 31H6 (antibody, V domains shown)
VH: B2 VH with N59K, I66K, H67N, V71I
VL: B2 VL with F32Y
notes: Parental rodent anti-human GITR monoclonal antibody from a hybridoma; kappa VL; also called 31H6.B7

Kd (hGITR-hIgG [1]): 0.25 nM
koff (hGITR-hIgG [2]): 0.0002 s⁻¹
kon (hGITR-hIgG [2]): 801000 M⁻¹ s⁻¹
proliferation of naïve CD4+ T cells, mean, at 0.4 ng/mL Ab [4]: 52300
proliferation of naïve CD4+ T cells, mean, at 0.9 ng/mL Ab [4]: 50700
proliferation of naïve CD4+ T cells, mean, at 2.2 ng/mL Ab [4]: 59800
proliferation of naïve CD4+ T cells, mean, at 5.2 ng/mL Ab [4]: 71400
proliferation of naïve CD4+ T cells, mean, at 12.6 ng/mL Ab [4]: 86200
proliferation of naïve CD4+ T cells, mean, at 30.1 ng/mL Ab [4]: 95300
proliferation of naïve CD4+ T cells, mean, at 72.3 ng/mL Ab [4]: 92400
proliferation of naïve CD4+ T cells, mean, at 173.6 ng/mL Ab [4]: 96200
proliferation of naïve CD4+ T cells, mean, at 416.7 ng/mL Ab [4]: 89800
proliferation of naïve CD4+ T cells, mean, at 1000.0 ng/mL Ab [4]: 97300
B4: 35D8 (antibody, V domains shown)
VH: EVQLQESGPSLVKPSQTLSLTCSVTGDSITSGYWNWIRKFPGNKLEYMGYISYSGSTYYNPSLRGRISITRDTSKSQYYLQLSSVTTEDTATYYCSRRHLGSGYGWFAYWGQGTLVTVSA
VL: DIVMTQSHKFMSTSVGDRVSITCKASQDVNTAVAWYQQKPGQSPKLLIYWASTRHTGVPDRFTGSGSGTDYALTINSVQAEDLALYYCQQHSYTPPWTFGGGTKLEIRR
notes: Parental rodent anti-human GITR monoclonal antibody from a hybridoma; kappa VL; also called 35D8.B10

Kd (hGITR-hIgG [1]): 0.665 nM
koff (hGITR-hIgG [2]): 0.000318 s⁻¹
kon (hGITR-hIgG [2]): 478000 M⁻¹ s⁻¹
proliferation of naïve CD4+ T cells, mean, at 0.4 ng/mL Ab [4]: 54300
proliferation of naïve CD4+ T cells, mean, at 0.9 ng/mL Ab [4]: 54100
proliferation of naïve CD4+ T cells, mean, at 2.2 ng/mL Ab [4]: 61100
proliferation of naïve CD4+ T cells, mean, at 5.2 ng/mL Ab [4]: 72200
proliferation of naïve CD4+ T cells, mean, at 12.6 ng/mL Ab [4]: 86000
proliferation of naïve CD4+ T cells, mean, at 30.1 ng/mL Ab [4]: 95500
proliferation of naïve CD4+ T cells, mean, at 72.3 ng/mL Ab [4]: 96100
proliferation of naïve CD4+ T cells, mean, at 173.6 ng/mL Ab [4]: 93600
proliferation of naïve CD4+ T cells, mean, at 416.7 ng/mL Ab [4]: 86300
proliferation of naïve CD4+ T cells, mean, at 1000.0 ng/mL Ab [4]: 78000
B5: 49A1 (antibody, V domains shown)
VH: B4 VH with L45F, Y50F, S56N, G65S, S76N, Y79F, Q81H, S83N, G101I
VL: B4 VL with D1V, V15I, S20N, N30I, T31S, Y71F, A72T, L83R, K104N, R108K
notes: Parental rodent anti-human GITR monoclonal antibody from a hybridoma; kappa VL; also called 49A1.B1
